Consider one molecule from paper PMC8849337.

What all share (assay): pull-down
In assay [1] the target is PPM-1.D(568-766) (C. elegans).
For assay [2], the target named is MBP–PPM-1.D–10×HIS (C. elegans).
Assay [3] concerns the target MBP-3C–PPM-1.D–truncated–10×HIS (C. elegans).

B1: GST–CHK-2–3×FLAG (enzyme)
chain: MVRGTKRRRSSAEKPIVVVPVTRDDTMPVDEDLVVGESQCAASKPFAKLVGVRRGISSIDLADDHFVCGRGSDDAPTNFNFSQVAKDVGLYRFISKIQFSIDRDTETRRIYLHDHSRNGTLVNQEMIGKGLSRELMNGDLISIGIPALIIFVYESADADHHPEELTKKYHVTSHSLGKGGFGKVLLGYKKSDRSVVAIKQLNTQFSTRCSRAIAKTRDIRNEVEVMKKLSHPNIVAIYDWITVAKYSYMVIEYVGGGEFFSKVVDSKYNRMGLGESLGKYFAFQLIDAILYLHSVGICHRDIKPENILCSDKAERCILKLTDFGMAKNSVNRMKTRCGTPSYNAPEIVANEGVEYTPKVDIWSLGCVLFITFSGYPPFSEEYTDMTMDEQVLTGRLIFHAQWRRITVETQNMIKWMLTVEPSNRPSAVELMSTQWMKCADCRTAKQDILKSIKPISAAAPAALQTTQAGPVKKAKM
As for B1, in assay [1], the fold less binding than PPM-1.D turned out to be 10 times and the fold more binding than PPM-1.D^trunc amounted to 7 times. Also, the fold binding relative to PPM-1.D lacking the C terminus in assay [2] stood at 70 fold. The same molecule registered a fold binding relative to the MBP affinity tag (NRDE2∆N control) in assay [3] of 4 times.
